Measurements: patent US20240117035A1

Legend:
[1] = biological target: human CLDN18.2 on cells (human) (UniProt P56856); assay: flow cytometry on SNU601 cells
[2] = biological target: human CLDN18.2 on cells (human) (UniProt P56856); assay: flow cytometry on hCLDN18.2-expressing HEK293 cells

- IC50 [1]: 0.811 µg/mL
- IC50 [2]: 0.701 µg/mL
B1: m-anti-human CLDN18.2-13 monoclonal antibody (antibody, mouse IgG2a, kappa, V domains shown)
VH: QLQLQQSGTELVRPGSSVKISCKASGYAFSNYWMNWVKQRPGQGLEWIGQIYPGNGDTKYNGNFKGKATLTADKSSSTAYMQLSSLTSEDSADYFCARYYRGNCFDYWGQGTTLTVSS
VL: DIVLTQSPSSLTVTAGEKVTMSCKSSQSLLNSGNQKNYLTWYQQKPGQPPKLLIYWASTRDSGVPARFTGSGSGTDFTLTINSVQAEDLAVYYCQNAYTYPLTFGAGTKLEIKR
